Blank lines part the entries; values can stand above or below the binder they belong to.
Legend:
HMGB1 [1] = target: T1, HMGB1 (Mus musculus, UniProt P63158 SEQ:1-215); experiment: competition; competes biotin-CpG-B(S) equally to unlabeled CpG-B(S); higher competitivity than PS; conditions: tags: GST-tagged, tag removed with thrombin (pGEX4T3)
Protocol: (§1) In more detail, a final concentration of 0, 0.1, 0.5, 2.5, 12.5, or 62.5 μg/mL of CpG-B(S) as a competitor was added to 2 μg of a recombinant HMGB1 protein and a final concentration of 2.5 μg/mL of biotin-labeled B-DNA, and they were incubated (room temperature, 30 minutes). The biotin-labeled B-DNA was pulled down with streptavidin-bound magnetic beads, and HMGB1 in the coprecipitated protein was detected by Western blotting using an anti-HMGB1 antibody. In addition, a final concentration of 0, 1, 2, 4, 8, 16, or 32 μM of a competitor: CpG-B(S) not labeled with biotin, CpG-M(S), ODN(PS) composed of only a phosphorothioate backbone and not having any base, or ODN(CpG-M) having the same sequence as that of CpG-M(S) and a phosphodiester backbone, was added to 2 μg of the recombinant HMGB1 protein and a final concentration of 0.2 μM of biotin-labeled CpG-B(S). The biotin-labeled CpG-B was pulled down with streptavidin-bound magnetic beads, and HMGB1 in the coprecipitated protein was detected by Western blotting using an anti-HMGB1 antibody.

[2] = target: T2, CFP-tagged RIG-I (CFP-RIG-I) (mouse, UniProt Q6Q899 1-926); experiment: confocal fluorescence microscopy of HeLa cells cotransfected with CFP-RIG-I and YFP-HMGB1 and stimulated with poly(I:C); the filing's interpretation of co-localisation
T2 construct: Expressed in HeLa cells from the pCAGGS-CFP vector; not shown: CFP tag from the pCAGGS-CFP vector
T2 sequence (looked up): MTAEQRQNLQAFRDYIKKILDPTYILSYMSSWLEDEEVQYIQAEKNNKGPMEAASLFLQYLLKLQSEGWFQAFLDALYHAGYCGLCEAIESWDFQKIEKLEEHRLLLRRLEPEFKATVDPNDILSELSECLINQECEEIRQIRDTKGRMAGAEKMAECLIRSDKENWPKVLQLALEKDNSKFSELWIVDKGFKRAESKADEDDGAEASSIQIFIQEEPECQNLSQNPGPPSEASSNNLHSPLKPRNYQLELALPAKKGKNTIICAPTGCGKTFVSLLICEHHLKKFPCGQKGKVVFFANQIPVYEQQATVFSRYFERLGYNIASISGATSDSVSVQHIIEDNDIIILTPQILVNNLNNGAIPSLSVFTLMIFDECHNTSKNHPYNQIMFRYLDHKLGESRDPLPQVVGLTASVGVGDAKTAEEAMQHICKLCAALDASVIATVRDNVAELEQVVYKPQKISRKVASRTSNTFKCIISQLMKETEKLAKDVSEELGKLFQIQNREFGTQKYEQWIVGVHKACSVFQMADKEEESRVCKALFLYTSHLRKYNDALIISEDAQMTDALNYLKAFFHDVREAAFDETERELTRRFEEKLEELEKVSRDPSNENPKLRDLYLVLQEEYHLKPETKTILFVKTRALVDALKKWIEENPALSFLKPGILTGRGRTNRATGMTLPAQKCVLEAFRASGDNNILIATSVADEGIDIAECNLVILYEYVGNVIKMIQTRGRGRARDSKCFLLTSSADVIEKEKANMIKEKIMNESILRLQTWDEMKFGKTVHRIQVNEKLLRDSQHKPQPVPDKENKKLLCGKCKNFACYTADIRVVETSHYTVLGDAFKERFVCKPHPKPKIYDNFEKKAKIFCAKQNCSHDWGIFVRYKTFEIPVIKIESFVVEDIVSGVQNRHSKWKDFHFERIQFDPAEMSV
Protocol: Intracellular localization of HMGB1 and RIG-I was investigated. Expression vectors of CFP-tagged RIG-I (CFP-RIG-I) and YFP-tagged HMGB1 (YFP-HMGB1) were introduced, together with RFP-tagged Rab5 (RFP-Rab5) or without RFP-Rab5, into HeLa cells. At 16 hours after the gene transfer, the cells were stimulated with poly(I:C) for 2 hours, and fluorescence microscopic observation was performed using a laser scanning confocal microscope.

HMGB1 [3] = target: T1, HMGB1; experiment: competition; competes biotin-B-DNA; higher competitivity than PS; conditions: tags: GST-tagged, tag removed with thrombin (pGEX4T3)
Protocol: (§2) In vitro pull-down assay was carried out as follows. At first, a recombinant of HMGB1, 2, or 3 was treated in the presence or absence of a competitor at room temperature for 30 minutes. The supernatant was mixed with a biotin-labeled B-DNA at 4° C. for 30 minutes, then streptavidin-bound magnetic beads (Invitrogen Corporation) were added thereto, and the mixture was incubated in a binding buffer (50 mM Tris-Cl, pH 7.5, 150 mM NaCl, 1 mM EDTA, 1% NP-40, 100 μg/mL leupeptin, 1 mM PMSF, 1 mM Na₃VO₄). Subsequently, the mixture was sufficiently washed with a binding buffer, was separated by SDS-PAGE, and then was immunoblotted using an anti-HMGB1, 2, or 3 antibody.
As in Example 13, in vitro pull-down assay using recombinant HMGB1 and biotin-bound B-DNA was performed for 0.1, 0.5, 2.5, 12.5 and 62.5 μg/mL of CpG-B(S), CpG-Rev(S), CpG-M(S) and PS, as competitors.

HMGB1 [4] = target: T1, HMGB1; experiment: pulldown; biotin-CpG-B(S) 0.2 uM pulled down HMGB1; also completely inhibited B-DNA binding; conditions: tags: GST-tagged, tag removed with thrombin (pGEX4T3)
Protocol: as §1

HMGB1 [5] = target: T1, HMGB1; experiment: pulldown; CpG-B ODN competing biotin-B-DNA; recombinant HMGB1 or 2 used, protein of this panel not specified; conditions: tags: GST-tagged, tag removed with thrombin (pGEX4T3)
Protocol: as §2
Binding of HMGB to DNA, RNA and base-free phosphorothioate deoxyribose homopolymer (PS) was investigated. In vitro pull-down assay using recombinant HMGB1 or 2 and biotin-bound B-DNA was performed in the presence of 1, 3, 10, 30 and 100 μg/mL of unlabeled nucleic acid (B-DNA, poly(I:C), poly(U), bovine thymus DNA, or microbial DNA), R837 (1, 3, 10, 30 and 100 μg/mL) (upper and middle panels), base-free natural deoxyribose homopolymer (PD: 0.01, 0.1, 0.3, 1 and 3 μg/mL, lower panel), or base-free phosphorothioate deoxyribose homopolymer (PS: 0.01, 0.1, 0.3, 1 and 3 μg/mL, lower panel). In the lower panel, unlabeled B-DNA or CpG-B ODN having stepwise increasing concentrations (0.1, 0.3, 1 and 3 μg/mL) was also used. […]

Binder: TCCATGAGGTTCCTGATGCT (ssDNA, PS all linkages) [CpG-M(S)]
- binding result (HMGB1 [1]): binds

- binding result [2]: binds
B1: YFP-tagged HMGB1 (YFP-HMGB1) (other, mouse, UniProt P63158 1-215, looked up)
chain: MGKGDPKKPRGKMSSYAFFVQTCREEHKKKHPDASVNFSEFSKKCSERWKTMSAKEKGKFEDMAKADKARYEREMKTYIPPKGETKKKFKDPNAPKRPPSAFFLFCSEYRPKIKGEHPGLSIGDVAKKLGEMWNNTAADDKQPYEKKAAKLKEKYEKDIAAYRAKGKPDAAKKGVVKAEKSKKKKEEEDDEEDEEDEEEEEEEEDEDEEEDDDDE
notes: Expressed in HeLa cells from the pCAGGS-YFP vector; not shown: YFP tag from the pCAGGS-YFP vector

Binder: TCCATGAGCTTCCTGATGCT (ssDNA, PS all linkages) [CpG-Rev(S)]
- binding result (HMGB1 [3]): binds

Binder: TCCATGACGTTCCTGATGCT (ssDNA, PS all linkages) [CpG-B(S)]
- binding result (HMGB1 [4]): binds
- binding result (HMGB1 [5]): binds

Source: US20130183348A1, “Inhibitor of HMGB Protein-Mediated Immune Response Activation, and Screening Method” (JAPAN SCIENCE AND TECHNOLOGY AGENCY, published 2013)
